In PMC8750153:

Molecular target: PpPex11 H2 WT peptide (Pichia pastoris)
Assay: pull-down; biotinylated peptides on streptavidin affinity gel as bait; soluble lysate fraction of His6-tagged GFP-Pex11s as prey, 1 h at room temperature; 50 mM Tris pH 8.0, 50 mM NaCl, 5 mM EDTA; anti-GFP immunoblot

In the case of His6-GFP-Pex11 (natural protein), the fold binding against the H3 peptide is reported as 2.5 fold.
